According to publication PMC4175982:

Biological target: GrpU protein from Clostridiales bacterium 1_7_47FAA (Clostridiales bacterium 1_7_47FAA)
Experiment: crystal structure

stoichiometry N: 6
Substance: GrpU protein from Clostridiales bacterium 1_7_47FAA (natural protein)
